Patent US8877192B2, “Rage fusion proteins and methods of use” (TransTech Pharma, LLC, priority 2004, dated 2014)

Target: T1, amphoterin (Ampho) (Homo sapiens, UniProt P09429)
T1 sequence (P09429 1-215): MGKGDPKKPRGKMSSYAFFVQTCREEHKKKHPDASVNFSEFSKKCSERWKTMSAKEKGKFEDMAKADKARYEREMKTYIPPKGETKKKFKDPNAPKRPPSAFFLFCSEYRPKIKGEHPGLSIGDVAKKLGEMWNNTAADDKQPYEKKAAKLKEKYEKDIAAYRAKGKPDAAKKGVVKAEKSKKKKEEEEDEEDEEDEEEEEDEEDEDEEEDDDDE
Assay: In vitro ligand binding (ELISA) to immobilized amphoterin
Conditions: increasing dilutions of fusion protein; FIG. 7
Description: For example, the RAGE fusion protein may be used in a binding assay to identify potential RAGE ligands. In one example embodiment of such a binding assay, a known RAGE ligand may coated onto a solid substrate (e.g., Maxisorb plates) at a concentration of about 5 micrograms per well, where each well contains a total volume of about 100 microliters (μL). The plates may be incubated at 4° C. overnight to allow the ligand to absorb. Alternatively, shorter incubation periods at higher temperature (e.g., room temperature) may be used. […] The fusion protein bound to the immobilized ligand may be detected in a variety of ways. […] The bound complex may be detected by adding the alkaline phosphatase substrate, para-nitrophenylphosphate (PNPP), and measuring conversion of PNPP to para-nitrophenol (PNP) as an increase in absorbance at 405 nm. […] Binding was detected by the addition of an immunodetection complex containing a monoclonal mouse anti-human IgG1 diluted 1:11,000 to a final assay concentration (FAC) of 21 ng/100 μL, a biotinylated goat anti-mouse IgG diluted 1:500, to a FAC of […], and an avidin-linked alkaline phosphatase. […] Binding of the complex to the immobilized fusion protein was quantified by measuring conversion of PNPP to para-nitrophenol (PNP) which was measured spectrophotometrically at 405 nm. […]

B1: TTP-4000: four domain RAGE fusion protein (SEQ ID NO: 32): human RAGE amino acids 1-251 linked to CH2 and CH3 domains of human IgG (protein)
chain: MAAGTAVGAWALVLSLWGAVVGAQNITARIGEPLVLKCKGAPKKPPQRLEWKLNTGRTEAWKVLSPQGGGPWDSVARVLPNGSLFLPAVGIQDEGIFRCQAMNRNGKETKSNYRVRVYQIPGKPEIVDSASELTAGVPNKVGTCVSEGSYPAGTLSWHLDGKPLVPNEKGVSVKEQTRRHPETGLFTLQSELMVTPARGGDPRPTFSCSFSPGLPRHRALRTAPIQPRVWEPVPLEEVQLVVEPEGGAVAPPSVFLFPPKPKDTLMISRTPEVTCVVVDVSHEDPEVKFNWYVDGVEVHNAKTKPREEQYNSTYRVVSVLTVLHQDWLNGKEYKCKVSNKALPAPIEKTISKAKGQPREPQVYTLPPSRDELTKNQVSLTCLVKGFYPSDIAVEWESNGQPENNYKTTPPVLDSDGSFFLYSKLTVDKSRWQQGNVFSCSVMHEALHNHYTQKSLSLSPGK
Q: Which “binding to immobilized amphoterin (absorbance at 405 nm)” value does the source give for B1 here?
A: specifically interact
